According to patent US20170342144A1 (Sanofi, published 2017):

Columns and labels:
Assay in all cases: Biacore off-rate vs wt GC1008, 50 nM
[1] = molecular target: T1, human TGFβ1 (human, UniProt P01137 279-390)
T1 construct: also called TGFβ1 homodimer
Excerpt: (§1) Plasmids encoding either the GC1008 heavy chain or light chain were used as a template in PCR-based mutagenesis reactions. Mutations to the encoding DNA were made to create 155 single amino acid substitutions of the encoded heavy chain amino acid sequence and one single amino acid substitution of the encoded light chain amino acid sequence. A QuikChange® Lightning Site-Directed Mutagenesis kit (Agilent Technologies, Santa Clara Calif.) was used according to the manufacturer's instructions to create DNA mutations using a set of forward and reverse primers, either designed for a specific amino acid or for all 20 amino acids with a degenerate codon (NNK). After sequencing confirmation, identified mutant DNA was paired with a wild-type light or heavy chain DNA for transfection into an Expi293F™ host cell suspension (Life Techonologies Corp., Grand Island, N.Y.). At 4 days post-transfection, conditioned media (1 mL) was harvested and purified using a 1 mL Protein A PhyTip® column (PhyNexus, Inc., San Jose, Calif.) and a PureSpeed™ 12-channel pipette (Rainin Instrument LLC, Oakland, Calif.). Purified variant antibody samples were analyzed in duplicate on a Biacore® 3000 (GE Healthcare) at 50 nM concentrations, using the 100 RU level TGFβ1, 2, and 3 immobilized surfaces. The off-rate (kd) of the variants was divided by the kd of the wild-type control to obtain the fold change in the kd. […] A heat map was generated to visualize the results. Variants that completely lost affinity for TGFβ were shown in red without numbers.

[2] = molecular target: T2, human TGFβ2 (human, UniProt P61812 303-414)
T2 construct: also called TGFβ2 homodimer
T2 sequence: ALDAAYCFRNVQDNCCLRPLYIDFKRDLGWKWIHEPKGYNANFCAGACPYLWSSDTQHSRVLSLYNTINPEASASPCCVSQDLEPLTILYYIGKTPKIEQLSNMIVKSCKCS
Excerpt: as §1

[3] = molecular target: T3, human TGFβ3 (human, UniProt P10600 301-412)
T3 sequence: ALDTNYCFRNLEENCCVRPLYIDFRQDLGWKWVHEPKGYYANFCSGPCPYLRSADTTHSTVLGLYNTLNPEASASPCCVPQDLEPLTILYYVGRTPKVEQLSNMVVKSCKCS
Excerpt: as §1

T1 sequence (P01137 279-390 limits assumed): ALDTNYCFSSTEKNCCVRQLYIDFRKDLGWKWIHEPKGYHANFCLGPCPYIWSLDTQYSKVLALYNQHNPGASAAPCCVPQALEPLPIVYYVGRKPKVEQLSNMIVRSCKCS

Binder	kd var/kd wt [1]	kd var/kd wt [2]	kd var/kd wt [3]
D56C (antibody, V domains shown, GC1008 IgG4 variant) VH: QVQLVQSGAEVKKPGSSVKVSCKASGYTFSSNVISWVRQAPGQGLEWMGGVIPIVCIANYAQRFKGRVTITADESTSTTYMELSSLRSEDTAVYYCASTLGLVLDAMDYWGQGTLVTVSS VL: ETVLTQSPGTLSLSPGERATLSCRASQSLGSSYLAWYQQKPGQAPRLLIYGASSRAPGIPDRFSGSGSGTDFTLTISRLEPEDFAVYYCQQYADSPITFGQGTRLEIK	1.1	1.3	0.8
I54Y (antibody, V domains shown, GC1008 IgG4 variant) VH: QVQLVQSGAEVKKPGSSVKVSCKASGYTFSSNVISWVRQAPGQGLEWMGGVIPYVDIANYAQRFKGRVTITADESTSTTYMELSSLRSEDTAVYYCASTLGLVLDAMDYWGQGTLVTVSS VL: ETVLTQSPGTLSLSPGERATLSCRASQSLGSSYLAWYQQKPGQAPRLLIYGASSRAPGIPDRFSGSGSGTDFTLTISRLEPEDFAVYYCQQYADSPITFGQGTRLEIK		1.3	1.5
S30K (antibody, V domains shown, GC1008 IgG4 variant) VH: QVQLVQSGAEVKKPGSSVKVSCKASGYTFKSNVISWVRQAPGQGLEWMGGVIPIVDIANYAQRFKGRVTITADESTSTTYMELSSLRSEDTAVYYCASTLGLVLDAMDYWGQGTLVTVSS VL: ETVLTQSPGTLSLSPGERATLSCRASQSLGSSYLAWYQQKPGQAPRLLIYGASSRAPGIPDRFSGSGSGTDFTLTISRLEPEDFAVYYCQQYADSPITFGQGTRLEIK		1.5	1.6
D56F (antibody, V domains shown, GC1008 IgG4 variant) VH: QVQLVQSGAEVKKPGSSVKVSCKASGYTFSSNVISWVRQAPGQGLEWMGGVIPIVFIANYAQRFKGRVTITADESTSTTYMELSSLRSEDTAVYYCASTLGLVLDAMDYWGQGTLVTVSS VL: ETVLTQSPGTLSLSPGERATLSCRASQSLGSSYLAWYQQKPGQAPRLLIYGASSRAPGIPDRFSGSGSGTDFTLTISRLEPEDFAVYYCQQYADSPITFGQGTRLEIK	2.3	1.5	1.5
D56L (antibody, V domains shown, GC1008 IgG4 variant) VH: QVQLVQSGAEVKKPGSSVKVSCKASGYTFSSNVISWVRQAPGQGLEWMGGVIPIVLIANYAQRFKGRVTITADESTSTTYMELSSLRSEDTAVYYCASTLGLVLDAMDYWGQGTLVTVSS VL: ETVLTQSPGTLSLSPGERATLSCRASQSLGSSYLAWYQQKPGQAPRLLIYGASSRAPGIPDRFSGSGSGTDFTLTISRLEPEDFAVYYCQQYADSPITFGQGTRLEIK	1.3	1.4	1
V55W (antibody, V domains shown, GC1008 IgG4 variant) VH: QVQLVQSGAEVKKPGSSVKVSCKASGYTFSSNVISWVRQAPGQGLEWMGGVIPIWDIANYAQRFKGRVTITADESTSTTYMELSSLRSEDTAVYYCASTLGLVLDAMDYWGQGTLVTVSS VL: ETVLTQSPGTLSLSPGERATLSCRASQSLGSSYLAWYQQKPGQAPRLLIYGASSRAPGIPDRFSGSGSGTDFTLTISRLEPEDFAVYYCQQYADSPITFGQGTRLEIK		1.3	2.1
V55I (antibody, V domains shown, GC1008 IgG4 variant) VH: QVQLVQSGAEVKKPGSSVKVSCKASGYTFSSNVISWVRQAPGQGLEWMGGVIPIIDIANYAQRFKGRVTITADESTSTTYMELSSLRSEDTAVYYCASTLGLVLDAMDYWGQGTLVTVSS VL: ETVLTQSPGTLSLSPGERATLSCRASQSLGSSYLAWYQQKPGQAPRLLIYGASSRAPGIPDRFSGSGSGTDFTLTISRLEPEDFAVYYCQQYADSPITFGQGTRLEIK		1.7	1.8
D56Q (antibody, V domains shown, GC1008 IgG4 variant) VH: QVQLVQSGAEVKKPGSSVKVSCKASGYTFSSNVISWVRQAPGQGLEWMGGVIPIVQIANYAQRFKGRVTITADESTSTTYMELSSLRSEDTAVYYCASTLGLVLDAMDYWGQGTLVTVSS VL: ETVLTQSPGTLSLSPGERATLSCRASQSLGSSYLAWYQQKPGQAPRLLIYGASSRAPGIPDRFSGSGSGTDFTLTISRLEPEDFAVYYCQQYADSPITFGQGTRLEIK	1.1	1.3	1
D56H (antibody, V domains shown, GC1008 IgG4 variant) VH: QVQLVQSGAEVKKPGSSVKVSCKASGYTFSSNVISWVRQAPGQGLEWMGGVIPIVHIANYAQRFKGRVTITADESTSTTYMELSSLRSEDTAVYYCASTLGLVLDAMDYWGQGTLVTVSS VL: ETVLTQSPGTLSLSPGERATLSCRASQSLGSSYLAWYQQKPGQAPRLLIYGASSRAPGIPDRFSGSGSGTDFTLTISRLEPEDFAVYYCQQYADSPITFGQGTRLEIK	1.1	1.3	0.7
V55L (antibody, V domains shown, GC1008 IgG4 variant) VH: QVQLVQSGAEVKKPGSSVKVSCKASGYTFSSNVISWVRQAPGQGLEWMGGVIPILDIANYAQRFKGRVTITADESTSTTYMELSSLRSEDTAVYYCASTLGLVLDAMDYWGQGTLVTVSS VL: ETVLTQSPGTLSLSPGERATLSCRASQSLGSSYLAWYQQKPGQAPRLLIYGASSRAPGIPDRFSGSGSGTDFTLTISRLEPEDFAVYYCQQYADSPITFGQGTRLEIK		1.6	1.8
D56K (antibody, V domains shown, GC1008 IgG4 variant) VH: QVQLVQSGAEVKKPGSSVKVSCKASGYTFSSNVISWVRQAPGQGLEWMGGVIPIVKIANYAQRFKGRVTITADESTSTTYMELSSLRSEDTAVYYCASTLGLVLDAMDYWGQGTLVTVSS VL: ETVLTQSPGTLSLSPGERATLSCRASQSLGSSYLAWYQQKPGQAPRLLIYGASSRAPGIPDRFSGSGSGTDFTLTISRLEPEDFAVYYCQQYADSPITFGQGTRLEIK	1.1	1.3	0.7
I52T (antibody, V domains shown, GC1008 IgG4 variant) VH: QVQLVQSGAEVKKPGSSVKVSCKASGYTFSSNVISWVRQAPGQGLEWMGGVTPIVDIANYAQRFKGRVTITADESTSTTYMELSSLRSEDTAVYYCASTLGLVLDAMDYWGQGTLVTVSS VL: ETVLTQSPGTLSLSPGERATLSCRASQSLGSSYLAWYQQKPGQAPRLLIYGASSRAPGIPDRFSGSGSGTDFTLTISRLEPEDFAVYYCQQYADSPITFGQGTRLEIK		1.9	2.1
D56I (antibody, V domains shown, GC1008 IgG4 variant) VH: QVQLVQSGAEVKKPGSSVKVSCKASGYTFSSNVISWVRQAPGQGLEWMGGVIPIVIIANYAQRFKGRVTITADESTSTTYMELSSLRSEDTAVYYCASTLGLVLDAMDYWGQGTLVTVSS VL: ETVLTQSPGTLSLSPGERATLSCRASQSLGSSYLAWYQQKPGQAPRLLIYGASSRAPGIPDRFSGSGSGTDFTLTISRLEPEDFAVYYCQQYADSPITFGQGTRLEIK	1.6	1.5	1.4
V55A (antibody, V domains shown, GC1008 IgG4 variant) VH: QVQLVQSGAEVKKPGSSVKVSCKASGYTFSSNVISWVRQAPGQGLEWMGGVIPIADIANYAQRFKGRVTITADESTSTTYMELSSLRSEDTAVYYCASTLGLVLDAMDYWGQGTLVTVSS VL: ETVLTQSPGTLSLSPGERATLSCRASQSLGSSYLAWYQQKPGQAPRLLIYGASSRAPGIPDRFSGSGSGTDFTLTISRLEPEDFAVYYCQQYADSPITFGQGTRLEIK		1.7	2
D56E (antibody, V domains shown, GC1008 IgG4 variant) VH: QVQLVQSGAEVKKPGSSVKVSCKASGYTFSSNVISWVRQAPGQGLEWMGGVIPIVEIANYAQRFKGRVTITADESTSTTYMELSSLRSEDTAVYYCASTLGLVLDAMDYWGQGTLVTVSS VL: ETVLTQSPGTLSLSPGERATLSCRASQSLGSSYLAWYQQKPGQAPRLLIYGASSRAPGIPDRFSGSGSGTDFTLTISRLEPEDFAVYYCQQYADSPITFGQGTRLEIK	1	1.2	0.9
D56N (antibody, V domains shown, GC1008 IgG4 variant) VH: QVQLVQSGAEVKKPGSSVKVSCKASGYTFSSNVISWVRQAPGQGLEWMGGVIPIVNIANYAQRFKGRVTITADESTSTTYMELSSLRSEDTAVYYCASTLGLVLDAMDYWGQGTLVTVSS VL: ETVLTQSPGTLSLSPGERATLSCRASQSLGSSYLAWYQQKPGQAPRLLIYGASSRAPGIPDRFSGSGSGTDFTLTISRLEPEDFAVYYCQQYADSPITFGQGTRLEIK	1.2	1.4	0.9
D56G (antibody, V domains shown, GC1008 IgG4 variant) VH: QVQLVQSGAEVKKPGSSVKVSCKASGYTFSSNVISWVRQAPGQGLEWMGGVIPIVGIANYAQRFKGRVTITADESTSTTYMELSSLRSEDTAVYYCASTLGLVLDAMDYWGQGTLVTVSS VL: ETVLTQSPGTLSLSPGERATLSCRASQSLGSSYLAWYQQKPGQAPRLLIYGASSRAPGIPDRFSGSGSGTDFTLTISRLEPEDFAVYYCQQYADSPITFGQGTRLEIK	1.4	1.5	1.1
